Assay results taken from PMC9438502, “Complementarity of neutron, XFEL and synchrotron crystallography for defining the structures of metalloenzymes at room temperature” (IUCrJ, 2022).

Target: the molecule itself
Test: crystal structure; room-temperature crystals of DHP-B, space group P2(1)2(1)2(1); neutron, in-house X-ray, SFX, SSX and serial Laue data; two protomers (A, B) in the asymmetric unit

B1: dehaloperoxidase B (enzyme, Amphitrite ornata)
chain: MGFKQDIATLRGDLRTYAQDIFLAFLNKYPDEKRNFKNYVGKSDQELKSMAKFGDHTEKVFNLMMEVADRATDCVPLASDASTLVQMKQHSGLTTGNFEKLFVALVEYMRASGQSFDSQSWDRFGKNLVSALSSAGMK
notes: dehaloperoxidase B (DHP-B), heme-containing coelomic hemoglobin of the marine annelid Amphitrite ornata; 274 protein residues modelled for the two protomers of the asymmetric unit; Heme protein, ferric or oxyferrous; The crystal for NX and NX-Xray was perdeuterated (97% deuteration level); the other crystals were protiated; also called DHP-B; dehaloperoxidase isoenzyme B; source: E. coli …
binding result: binds
